Changes are numbered by the printed parent chain.
B1: PMX084 (antibody, V domains shown)
VH: EVQLVESGGDLVKPEGSLRLSCVVSGFTFSNYDMSWVRQAPGKGLQWVAFISNDGRITGYTDAVEGRFTISRDNAKNTLYLQMNSLRTEDTAVYYCAKETSRWGFDYWGQGTLVTVSS
VL: SYVLTQLPSVSVTLRQTARITCGGDSIGSKNVYWHQQKLGQAPVLIIYDDSSRPSGIPERFSGANSGNTATLTISGALAEDEADYYCQVWDSSTSVFGGGTHLTVL
notes: also called PMX84
B2: PMX062 (antibody)
heavy: EVQLVESGGDLVKPEGSLRLSCVVSGFTFSSYDMSWVRQAPGKGLQWVAYISFDGRSTSYTDVVKGRFTISRDNAKTTLYLQMNTLRIEDTAVYYCAKLSSSGWSMDYWGHGTSLFVSSASTTAPSVFPLAPSCGSTSGSTVALACLVSGYFPEPVTVSWNSGSLTSGVHTFPSVLQSSGLYSLSSMVTVPSSRWPSETFTCNVAHPASKTKVDKPVPKRENGRVPRPPDCPKCPAPESLGGPSVFIFPPKPKDTLLIARTPEVTCVVVDLGREDPEVQISWFVDGKQMQTAKTQPREEQFNGTYRVVSVLPIGHQDWLKGKQFTCKVNHIGLPSPIERTISKARGQAHQPSVYVLPPSREELSKNTVSLTCLIKDFFPPDIDVEWQSNGQQEPESKYRTTPPQLDEDGSYFLYSKLSVDKSRWQRGDTFICAVMHEALHNHYTQKSLSHSPGK
VL: SYVLTQLPSKNVTLKQPAHITCGGDNIGSKSVHWYQQKLGQAPVLIIYYDSSRPTGIPERFSGANSGNTATLTISGALAEDEADYYCQVWDSSASVFGGGTHLTVL
notes: also called PMX62
B3: PMX082 (antibody, V domains shown)
VH: EVQLVESGGDLVKPGGSLRLSCVASGFTFSSHHMTWVRQAPGKGLQWVAYIVSGGTNTNYADAVKGRFTISRDNAKNTLYLQMNSLRAEDTAVYYCASDLVLAVGAPFYWGQGTLVTVSS
VL: SYELTQPPSVNVTLRETAHITCGGDSIGRKYVQWIQQNPGQAPVVIIYKDINRPTGIPERFSGANSGNTATLTISGALAEDEADYYCQVGDSGTKAVFGEGTQLTVL
notes: also called PMX82
B4: PMX083 (antibody, V domains shown)
VH: EVQLVESGGDLVKPGGSLRLSCVASGFTFRTYHMSWVRQAPGKGLQWVAYITRDGISTTYTDAVKGRFTISRDNAKNTLFLQMNSLRADDTAVYYCASDLVLVLGAPFYWGQGTLVTVSS
VL: B3 VL with R15G, I51S
notes: also called PMX83
B5: PMX085 (antibody, V domains shown)
VH: EVKLVESGGDLVKPEGSLRLSCVVSGFTFSRYGMSWVRQAPGKGLQWVAYISSDGRSSSYTDAVQGRFTISSDNAKNTLYLQMNSLTTEDTAVYYCAKLGRGFNFNFWGQGTLVTVSS
VL: B2 VL
notes: also called PMX85
B6: PMX086 (antibody, V domains shown)
VH: EVQLVESGGDLVKPGGSLRLSCVASGFTFSSYHMSWVRQAPGKGLQWVAFINSAESSTTYADAVKGRFTISRDNAKNTLYLQMNSLRAEDTAVYYCAGGYIWTHFDYWGQGTLVTVSS
VL: B1 VL with S26I, N31S, H35Y, K38N, D49R, S51T, S52N, S55T, N65S
B7: PMX087 (antibody, V domains shown)
VH: B6 VH with Q3H, S31N, A54G, E55G, S57G, T59S, N74Y, N77S, G98S
VL: B1 VL with S26I, H35Y, V44I, D49R, S52N, S55T, N65S
B8: PMX088 (antibody, V domains shown)
VH: EVQLVESGGDLVKPGGSLRLSCVASGFTFNTYHMNWVRQAPGKGLHWVAFINSGGTGTGYSDTVKGRFTISRDYAKNTLYLQMNSLRAEDTAVYYCVSGSIWTHFDYWGQGTLVTVSS
VL: SYVLTQLPSVSMTLRQTAHITCGGDIIGSKSVYWYQQKLGQAPVLIIYRDTNRPTGIPERFSGASSGNTATLTISGALAEDEADYYCQVWDSNTQAVFGGGTHLTVL
B9: PMX089 (antibody, V domains shown)
VH: EVQLVESGGDLVKPGGSLRLSCVASGFTFNNFHMSWVRQAPGKGLQWVAFINSDGGNRNYADVVKGRVTISRDYAKNTLYLQINSLRAEDTAVYYCAGGSIWTHFDYWGQGTLVTVSS
VL: SYVLTQLPSMSVTLRQTARITCEGDIIASKRIYWYQQKLGQVPVLLIYADSSRPSGIPERFSGASSGNTATLTISGALAEDEADYYCQVWDNNANSVFGGGTHLTVL
B10: PMX092 (antibody, V domains shown)
VH: B9 VH with F32L, G56R, V63A, A97T
VL: B9 VL with I32V, L46F, S51N, N92S
B11: PMX093 (antibody, V domains shown)
VH: B6 VH with A54G, E55G, S56G, S57G, T59N, N74Y, A97V, Y100S
VL: B9 VL with I32V, A49G, S65N, N92S, N93G, A94T
B12: PMX094 (antibody, V domains shown)
VH: DIHLVESGGDLVRPGGSLRLSCVASGFTFSNLHMNWVRQAPGKGLQWVAFINSGGSGTTYADVVRGRFTISRDYAKNTLYLQMNSLRADDTAVYYCASGSIWTHFDYWGQGTLVTVSS
VL: B8 VL with Y2F, M12V, H19R, I26S, T51S, F61I, N93S, T94N, Q95K, V97M
B13: PMX095 (antibody, V domains shown)
VH: B12 VH with D1A, I2V, H3Q, N31S, L32Y, G57S, Y80F, D89E, S98I
VL: SFVLTQLPSVSVTLRQTARITCGGDIIGSKNVYWYQQRLGQAPVLILYRDTNRPTGIPERFSGASSGNTATLTISGALAEDEADYYCQVWDNSNKAMFGGGTHLTVL
B14: PMX096 (antibody, V domains shown)
VH: B8 VH with T56S, G57D, G59S, S61A, K65Q, V97A, S100Y
VL: B8 VL with M12V, L45M, T51N, A77S, N93R, V97L
B15: PMX099 (antibody, V domains shown)
VH: B12 VH with D1E, I2V, H3Q, N31S, L32Y, G57S, D89E
VL: B13 VL with I26S, S29T, N31S, R38K, L47I, T51S, N92S
B16: PMX100 (antibody, V domains shown)
VH: B12 VH with D1E, I2V, H3Q, N31S, L32Y, N35S, G57S, D89E
VL: B13 VL with I26S, N31S, L47I, T51S
B17: PMX101 (antibody, V domains shown)
VH: B12 VH with D1E, I2V, H3Q, L32Y, N35S, G57S, T59S, V63A, D89E
VL: B13 VL with N31S, Y35F, R38K, V44I, L47I, T51D, T73I, D84H, N92S, N94S
B18: PMX103 (antibody, V domains shown)
VH: B12 VH with D1E, I2V, H3Q, Y80N, N84T, D89E, S98T
VL: B13 VL with I26S, N31S, R38K, L47I, T51S, F61I, N92S

What was measured:
[1] = target: T1, canine OX40L, full length membrane form, expressed on HEK293 cells (canine); assay: flow cytometry
T1 construct: also called OX40L expressing HEK; HEK OX40L cells
T1 chain: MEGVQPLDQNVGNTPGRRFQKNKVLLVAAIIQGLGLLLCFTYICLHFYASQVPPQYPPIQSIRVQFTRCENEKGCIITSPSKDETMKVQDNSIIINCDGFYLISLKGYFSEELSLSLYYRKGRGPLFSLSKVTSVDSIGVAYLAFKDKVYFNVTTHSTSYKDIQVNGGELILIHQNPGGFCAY
Procedure: (§1) CHO supernatants diluted in FACS buffer (PBS containing 3% FBS) at 1, 5 or 10 μg/ml were used to screen for their binding capacity to canine OX40L using a cell-based assay. In brief, HEK293 or MEF cells (or any other commonly used cell lines) expressing canine OX40L at the cell surface are incubated with 100 μll of FACS buffer containing the candidate antibody for 30′ on ice. Cells are washed with 150 μl FACS buffer followed by centrifugation at 300 g for 3 min. The cell pellet is resuspended in FACS buffer containing a 1:1000 dilution of a fluorescently labelled secondary antibody recognising the canine Fc region of the test antibody for 30 min in the dark, followed by washing with 150 μl FACS buffer. Cells are resuspended in FACS buffer and flow cytometry performed using either a […] cytometer, followed by data analysis using FlowJo (FIG. 6 and Table 4).

[2] = target: T1, canine OX40L, full length membrane …; assay: cell-based or functional assay
[3] = target: T1, canine OX40L, full length membrane …; assay: flow cytometry, OX40L HEK minus WT HEK
Procedure: as §1

Binder | GEO mean OX40L expressing HEK [1] | % Signal Inhibition Average [2] [%] | % Signal Inhibition Rep1 [2] [%] | % Signal Inhibition Rep2 [2] [%] | % Signal Inhibition Rep3 [2] [%] | GEO mean difference [3]
B1 | 622000 | 60.7 | 47.2 | 66.9 | 68 | 610000
B2 | 2.81e+06 | 15 | 4.15 | 22.1 | 18.7 | 2.78e+06
B3 | 544000 | 72.3 | 72.8 | 71.9 | 72.1 | 531000
B4 | 701000 | 71.1 | 66 | 65.8 | 81.6 | 690000
B5 | 839000 | 46.9 | 43.8 | 56.2 | 40.8 | 826000
B6 | 857000 | 18.3 | 5.85 | 35.1 | 14 | 849000
B7 | 1.05e+06 | 32.6 | 29.8 | 46.2 | 21.6 | 1.04e+06
B8 | 783000 | 7.21 | 17 | 3.51 | 1.17 | 775000
B9 |  | 47.4 | 43.3 | 49.7 | 49.1 | 
B10 |  | 34.7 | 33.3 | 39.2 | 31.6 | 
B11 |  | 5.46 | 0 | -0.585 | 17 | 
B12 |  | 45.4 | 38.6 | 55 | 42.7 | 
B13 |  | 50.3 | 40.9 | 52.6 | 57.3 | 
B14 |  | 50.1 | 36.8 | 59.1 | 54.4 | 
B15 |  | 24.8 | 25.1 | 32.7 | 16.4 | 
B16 |  | 32.4 | 49.1 | 28.1 | 19.9 | 
B17 |  | 52.4 | 62.6 | 50.3 | 44.4 | 
B18 |  | 47.6 | 57.3 | 26.3 | 59.1 | 

Reference: patent publication US20250340659A1 (PETMEDIX, published 2025)
